The source of these data is paper PMC9481602 (Nature Communications, 2022).

Assay [1] addresses T1, ubiquitin acetylated at K11 (UniProt P0CG48 1-76, acetyllysine (AcK) at position 11).
T1 construct: ubiquitin (Ub), the 76-residue cut product of its precursors; codon-optimized cDNA; K11 replaced by acetyllysine; 15N isotopically labelled in the NMR titration; also called Ub 11AcK; source: E. coli B834 (DE3), amber suppression with AcK-RS/tRNA, purified (HisTrap, His-tag removed with UCHL3, HiTrap SP); not shown: His6, C-terminal, cleaved
The assay is described as follows: NMR titration; unlabelled Ubiquilin-2 UBA domain added stepwise to 15N-labelled Ub variants (33 µM Ub 11AcK and nonmodified Ub; 157 µM the other variants); 1H-15N HSQC, 298 K, 18.8 T, 20 mM NaH2PO4 pH 6.8, 5% D2O; global fit of six residues assuming 1:1 binding. The conditions noted are these: both partners purified.

The next assay concerns the target T2, nonmodified ubiquitin (UniProt P0CG48 1-76).
T2 construct: ubiquitin (Ub), the 76-residue cut product of its precursors; codon-optimized cDNA; 15N isotopically labelled in the NMR titration; also called Ub (wt); source: E. coli, purified (HisTrap, His-tag removed with UCHL3, HiTrap SP); not shown: His6, C-terminal, cleaved
The assay is described as above. The conditions noted are these: both partners purified.

B1: UBA domain of human Ubiquilin-2 (domain or fragment, UniProt Q9UHD9 581-621, looked up)
chain: RFQQQLEQLNAMGFLNREANLQALIATGGDINAAIERLLGS
notes: Ubiquilin-2 (Chap1, hPLIC-2), human, UBA domain; Unlabelled; also called UQ2-UBA; Chap1; source: E. coli BL21 (DE3) Rosetta, purified (Glutathione Sepharose, TEV cleavage, SEC); not shown: GST, N-terminal, cleaved
For B1, the values for the equilibrium dissociation constant (Kd) (in assay [1]; in the assay with nonmodified ubiquitin) were 8 ± 0.8 µM and 2 ± 0.4 µM, respectively.
